Experimental data as given in PMC3118927.
Where two headings read alike, the source gives them in different places.

Tests used:
Assay in all cases: EMSA
[1] = target: T1, Exd (Extradenticle);Ubx (Drosophila melanogaster?;Drosophila …, UniProt P40427;P83949 1-376;56-389, |)
[2] = target: T1, Exd (Extradenticle);Ubx; remark: listed apart in the source
[3] = target: T1, Exd (Extradenticle);Ubx; remark: listed apart in the source

T1 sequence (P40427 whole entry, chain 1 of 2): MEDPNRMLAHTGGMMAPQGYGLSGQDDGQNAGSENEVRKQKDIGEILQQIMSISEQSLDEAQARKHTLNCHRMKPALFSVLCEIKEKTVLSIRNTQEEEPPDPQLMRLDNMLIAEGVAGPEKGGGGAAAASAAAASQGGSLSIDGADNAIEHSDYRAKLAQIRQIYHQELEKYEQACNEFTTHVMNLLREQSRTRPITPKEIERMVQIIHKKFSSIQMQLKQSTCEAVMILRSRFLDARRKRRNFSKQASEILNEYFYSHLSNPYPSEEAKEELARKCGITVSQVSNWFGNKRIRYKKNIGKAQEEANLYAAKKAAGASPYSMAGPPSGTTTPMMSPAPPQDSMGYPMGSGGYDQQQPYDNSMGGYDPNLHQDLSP
T1 sequence (P83949 56-389, chain 2 of 2): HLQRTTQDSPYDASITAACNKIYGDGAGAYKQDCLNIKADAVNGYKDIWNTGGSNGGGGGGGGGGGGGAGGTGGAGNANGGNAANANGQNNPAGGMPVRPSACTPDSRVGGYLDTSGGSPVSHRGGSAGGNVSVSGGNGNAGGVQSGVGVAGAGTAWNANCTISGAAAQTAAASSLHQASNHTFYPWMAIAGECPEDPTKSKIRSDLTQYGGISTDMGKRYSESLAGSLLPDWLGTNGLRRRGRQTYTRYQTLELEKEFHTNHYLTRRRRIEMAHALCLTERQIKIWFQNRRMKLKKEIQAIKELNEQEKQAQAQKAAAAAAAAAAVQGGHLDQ

Row | Binder | binding result [1] | further results
1 | PrFHOX (dsDNA) DNA 1: TGATGGCTTCCCTTATGATTTTTTGAATAATTTCTTTA DNA 2: TATAAAGAAATTATTCAAAAAATCATAAGGGAAGCCAT | no binding | –
2 | fkh[250con] (dsDNA) DNA 1: GATCTCAATGTCAAGATTTATGGCCAGCTGTGGGACGA DNA 2: CCTCGTCCCACAGCTGGCCATAAATCTTGACATTGAGA | – | binding result [2]: binds
3 | PrFWT (dsDNA) DNA 1: TGATGGCTTCCCTTATGATTTATTGAATAATTTCTTTA DNA 2: TATAAAGAAATTATTCAATAAATCATAAGGGAAGCCAT | – | binding result [3]: binds
4 | PrFEXD (dsDNA) DNA 1: TGATGGCTTCCCTTATAGTTTATTGAATAATTTCTTTA DNA 2: TATAAAGAAATTATTCAATAAACTATAAGGGAAGCCAT | no binding | –
